Laboratory results: patent US20250243261A1 (CZ BIOHUB SF, published 2025)

Assays:
[1] = target: SARS-CoV-2 Beta-variant Spike with two stabilizing proline substitutions (S-2P) (SARS-CoV-2 Beta variant); experiment: BLI, IgG
[2] = target: T1, SARS-CoV-2 Omicron-variant receptor binding domain (RBD) (SARS-CoV-2 Omicron variant); experiment: BLI, IgG
T1 construct: domain: RBD

B1: C143 WT IgG (antibody, V domains shown)
VH: EVQLVESGGGLVQPGGSLRLSCAASGFSVSTKYMTWVRQAPGKGLEWVSVLYSGGSDYYADSVKGRFTISRDNSKNALYLQMNSLRVEDTGVYYCARDSSEVRDHPGHPGRSVGAFDIWGQGTMVTVSS
VL: QSALTQPASVSGSPGQSITISCTGTSNDVGSYTLVSWYQQYPGKAPKLLIFEGTKRSSGISNRFSGSKSGNTASLTISGLQGEDEADYYCCSYAGASTFVFGGGTKLTVL
[1]
  Kd: 0.45 µM
[2]
  Kd: 600 µM
